Literature values in PMC8690575.

Molecular target: Rhodopsin (Mus musculus) (UniProt P15409)

Substance: Arrestin-1 (from UniProt P20443)
- Kd: 150 µM
